T1: human gamma (γ) common chain expressed on CHO cells (human, UniProt P31785 23-369)
T1 construct: whole, on cells; Control protein; also called human IL-2R-γ common subunit; human γ-common
T1 sequence (looked up): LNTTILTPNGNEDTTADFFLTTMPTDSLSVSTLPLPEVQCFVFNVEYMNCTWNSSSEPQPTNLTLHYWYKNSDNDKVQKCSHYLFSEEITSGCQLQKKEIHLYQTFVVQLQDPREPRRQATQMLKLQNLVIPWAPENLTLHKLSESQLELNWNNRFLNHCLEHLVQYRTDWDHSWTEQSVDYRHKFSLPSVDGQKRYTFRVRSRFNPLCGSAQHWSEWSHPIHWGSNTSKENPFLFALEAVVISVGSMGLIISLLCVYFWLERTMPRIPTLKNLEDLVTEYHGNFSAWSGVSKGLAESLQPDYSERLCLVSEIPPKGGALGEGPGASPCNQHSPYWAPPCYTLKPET

T2: human IL-2Rβ (human, UniProt P14784 27-239)
T2 sequence (looked up): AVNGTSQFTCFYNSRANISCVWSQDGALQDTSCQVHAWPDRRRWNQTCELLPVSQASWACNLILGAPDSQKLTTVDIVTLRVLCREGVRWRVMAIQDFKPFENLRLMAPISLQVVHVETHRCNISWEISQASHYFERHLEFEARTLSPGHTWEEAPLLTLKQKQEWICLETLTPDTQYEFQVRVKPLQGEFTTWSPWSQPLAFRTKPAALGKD


What was measured:
[1] = target: T1, human gamma (γ) common chain expressed …; experiment: cell-based ELISA on CHO cells transiently expressing human gamma common chain; HRP anti-human IgG, A450
Method: (§1) FIG. 6(a-l) depicts the binding of 21 anti-IL-21R IgGs to CHO cells transiently expressing human IL-21R (FIGS. 6a-c), rat IL-21R (FIGS. 6d-f), cynomolgus monkey IL-21R (FIGS. 6g-i), and human gamma common chain (FIGS. 6j-1). CHO cells were transiently transfected with IL-21R or the control gamma common chain, and binding was detected with HRP-conjugated anti-human IgG in a cell-based ELISA.
(§2) A subset of binding proteins was tested for binding to rat, cynomolgus monkey, human IL-21R, or human IL-2R-γ common subunit expressed transiently on the surfaces of CHO-PA-Dukx cells. Cells were transfected 48 hr prior to the assay. On the day of the assay, cells were washed gently 5× in PBS containing 0.9 mM CaCl₂ and 0.45 mM MgCl₂ (PBS/CaMg) on an automated plate washer (Titertek, Huntsville, Ala.), and blocked for 1 hr at RT in PBS/CaMg/5% nonfat dry milk. Conditioned media from transiently expressed anti-IL-21R IgGs were serially diluted in blocking buffer and added to the cells in the blocked plates for 1 hr at RT. Cells were washed 5× with PBS/CaMg and then incubated with horseradish peroxidase-conjugated anti-human IgG for 1 hr at RT. Cells were then washed 10× in PBS/CaMg and all of the wash buffer was removed. Cells were incubated with 100 μl TMB until the color reaction reached saturation, stopped with 100 μl of 0.18 M H₂SO₄, and read at A450 on a Perkin Elmer ENVISION™ plate reader.

[2] = target: T3, cynomolgus monkey IL-21R expressed on cells (cynomolgus monkey, UniProt G7Q0S8 41-559); experiment: cell-based ELISA on CHO cells transiently expressing cynomolgus monkey IL-21R; HRP anti-human IgG, A450
T3 construct: whole, on cells
Method: as §1, §2

[3] = target: T3, cynomolgus monkey IL-21R expressed on …; experiment: cell ELISA, CHO cells
Method: as §2

[4] = target: T4, human IL-21R expressed on cells (human, UniProt Q9HBE5 20-538); experiment: cell ELISA, CHO cells
T4 construct: also called human IL-21R-BaF3; human IL-21R-TF1
T4 sequence (Q9HBE5 20-538 limits assumed): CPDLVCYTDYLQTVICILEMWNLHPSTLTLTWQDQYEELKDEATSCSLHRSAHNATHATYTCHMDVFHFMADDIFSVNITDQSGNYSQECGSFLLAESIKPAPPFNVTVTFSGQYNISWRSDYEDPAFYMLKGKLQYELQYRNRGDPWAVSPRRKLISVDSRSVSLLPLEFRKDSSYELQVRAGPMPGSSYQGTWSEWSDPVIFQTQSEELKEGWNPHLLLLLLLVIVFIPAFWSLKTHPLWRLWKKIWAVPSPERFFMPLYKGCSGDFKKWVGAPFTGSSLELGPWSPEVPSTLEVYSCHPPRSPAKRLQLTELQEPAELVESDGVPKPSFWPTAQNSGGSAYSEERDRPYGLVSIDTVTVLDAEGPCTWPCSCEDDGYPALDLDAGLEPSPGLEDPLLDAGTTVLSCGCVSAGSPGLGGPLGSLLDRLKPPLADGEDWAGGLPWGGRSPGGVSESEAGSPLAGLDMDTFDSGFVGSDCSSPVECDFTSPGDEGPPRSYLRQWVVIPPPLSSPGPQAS
Method: as §2

[5] = target: T1, human gamma (γ) common chain expressed …; experiment: cell ELISA, CHO cells
Method: as §2

[6] = target: T5, rat IL-21R expressed on cells (rat); experiment: cell ELISA, CHO cells
T5 construct: whole, on cells
Method: as §2

[7] = target: T2, human IL-2Rβ; experiment: SPR, Ab captured
Method: (§3) The specificity of binding of a subset of transiently expressed anti-IL-21R binding proteins (here antibodies) was tested on a BIACORE™ 2000 surface plasmon resonance instrument. Anti-human-IgG, anti-murine immunoglobulin antibodies, and murine IL-21R-H/F were immobilized onto a research-grade carboxymethyl-dextran chip (CM5) using standard amine coupling. The sensor chip surface was activated with EDC/NHS for 7 min at a flow rate of 20 μl/min. The first flow cell was used as reference surface to correct for bulk refractive index, matrix effects, and nonspecific binding. […] Remaining activated groups were blocked with 1.0 M ethanolamine (pH 8.0). The molecular weights of the anti-human IgG and the anti-murine IgG were both 150 kD, and the molecular weight of the IL-21R monomer was 27 kD.
(§4) Conditioned media containing anti-IL-21R antibodies and antibody controls (murine anti-human IL-2Rβ and murine anti-human IL-4R(R&D Systems, Minneapolis, Minn.); human anti-human IL-13 (Wyeth, Cambridge, Mass.)) were diluted in HBS/EP buffer supplemented with 0.2% bovine serum and injected onto all four flow cells of the BIACORE™ chip, capturing 500-700 (RU) of antibody on the species-appropriate capture antibody. Following a 5 sec washing period, 50 nM solutions of a positive control protein (murine IL-21R-H/F), two human proteins related to IL-21R (human IL-2Rβ and human sIL-4R(R&D Systems)), or an unrelated His/FLAG-tagged protein (human IL-13-H/F) were injected over the captured antibodies on the chip. The association and dissociation phases were monitored for 120 and 180 sec, respectively, followed by two 5 μl injections of glycine (pH 1.5) to regenerate a fully active capturing surface. All binding experiments were done at 25° C. in HBS/EP buffer. Blank and buffer effects were subtracted for each sensorgram using double referencing.

[8] = target: T6, human IL-13-His/FLAG (human, UniProt P35225 35-146, limits assumed); experiment: SPR, Ab captured
T6 construct: Unrelated His/FLAG-tagged control; also called human IL-13-H/F
T6 sequence (P35225 35-146 limits assumed): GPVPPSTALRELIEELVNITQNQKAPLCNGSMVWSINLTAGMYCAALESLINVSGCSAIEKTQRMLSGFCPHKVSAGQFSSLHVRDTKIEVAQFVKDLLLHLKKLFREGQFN
Method: as §3, §4

[9] = target: T7, human soluble IL-4R (human, UniProt P24394 26-232, limits assumed); experiment: SPR, Ab captured
T7 construct: also called human sIL-4R
Method: as §3, §4

[10] = target: murine IL-21R expressed on cells (murine, UniProt Q9JHX3 20-529); experiment: cell-based or functional assay
Chain of murine IL-21R expressed on cells (Q9JHX3 20-529 limits assumed): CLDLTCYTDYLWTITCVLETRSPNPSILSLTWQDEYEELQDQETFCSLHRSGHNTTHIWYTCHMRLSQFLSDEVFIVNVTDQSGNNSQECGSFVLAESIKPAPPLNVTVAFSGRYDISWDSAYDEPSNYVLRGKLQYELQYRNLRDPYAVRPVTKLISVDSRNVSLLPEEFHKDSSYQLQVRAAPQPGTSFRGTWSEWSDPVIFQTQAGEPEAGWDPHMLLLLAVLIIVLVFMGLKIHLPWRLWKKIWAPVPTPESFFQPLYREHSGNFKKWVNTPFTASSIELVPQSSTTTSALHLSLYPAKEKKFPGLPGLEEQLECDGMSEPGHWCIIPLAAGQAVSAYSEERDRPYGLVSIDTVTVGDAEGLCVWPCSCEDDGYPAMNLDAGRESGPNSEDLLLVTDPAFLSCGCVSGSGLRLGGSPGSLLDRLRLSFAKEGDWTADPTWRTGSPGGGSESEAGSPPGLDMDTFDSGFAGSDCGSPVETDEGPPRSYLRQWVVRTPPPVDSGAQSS

[11] = target: T4, human IL-21R expressed on cells; experiment: cell-based or functional assay
[12] = target: T4, human IL-21R expressed on cells; experiment: cell-based ELISA on CHO cells transiently expressing human IL-21R; HRP anti-human IgG, A450
Method: as §1, §2

[13] = target: T5, rat IL-21R expressed on cells; experiment: cell-based ELISA on CHO cells transiently expressing rat IL-21R; HRP anti-human IgG, A450
Method: as §1, §2

| binding result [1] | EC50 (read off the curve) [2] [nM] | A450 (13 nM Ab) [3] [A450] | A450 (13 nM Ab) [4] [A450] | A450 (13 nM Ab) [5] [A450] | A450 (13 nM Ab) [6] [A450] | binding result [7] | binding result [8] | binding result [9] | Murine IL-21R-BaF3 Proliferation IC50 [10] [nM] | Human IL-21R-BaF3 Proliferation IC50 [11] [nM] | Human IL-21R-TF1 Proliferation IC50 [11] [nM] | EC50 (read off the curve) [12] [nM] | EC50 (read off the curve) [13] [nM] | Binder |
| --- | --- | --- | --- | --- | --- | --- | --- | --- | --- | --- | --- | --- | --- | --- |
| no binding (tested: 40 nM) | ~0.5 | 1.3 | 1.35 | 0.108 | 1.11 | no binding (tested: 50 nM) | no binding (tested: 50 nM) | no binding (tested: 50 nM) | 0.07 | 0.77 | 3.84 | ~0.5 | ~0.9 | AbG (antibody, IgG1, V domains shown, As for AbA: IgG1/lambda, CDR3 graft, residue limits derived; also called VHP/VL18) VH: QVQLQESGPGLVKPSETLSLTCAVSGYSISSGYYWGWIRQPPGKGLEWIGSISHTGNTYYNPPLKSRVTISVDTSKNQFSLKLSSVTAADTAVYYCARGGGISRPEYWGQGTLVTVSS VL: SSELTQDPAVSVALGQTVRITCQGDSLRTYYASWYQQKPGQAPVLVIYGKHKRPSGIPDRFSGSSSGNTASLTITGAQAEDEADYYCVTRSVKGNPHVLFGGGTQLTVL |
| no binding (tested: 40 nM) | ~0.5 | 1.35 | 1.2 | 0.111 | 1.12 | no binding (tested: 50 nM) | no binding (tested: 50 nM) | no binding (tested: 50 nM) | 0.08 | 0.97 | 3.8 | ~0.5 | ~0.8 | AbA (antibody, V domains shown, Human IgG1/lambda, transiently expressed; also called VHP/VL2) VH: QVQLQESGPGLVKPSETLSLTCAVSGYSISSGYYWGWIRQPPGKGLEWIGSISHTGNTYYNPPLKSRVTISVDTSKNQFSLKLSSVTAADTAVYYCARGGGISRPEYWGQGTLVTVSS VL: SSELTQDPAVSVALGQTVRITCQGDSLRTYYASWYQQKPGQAPVLVIYGKHKRPSGIPDRFSGSSSGNTASLTITGAQAEDEADYYCVARSVVGNPHVLFGGGTQLTVL |
| no binding (tested: 40 nM) | ~0.6 | 1.33 | 1.15 | 0.107 | 1.09 | no binding (tested: 50 nM) | no binding (tested: 50 nM) | no binding (tested: 50 nM) | 0.421 | 1.14 | 3.34 | ~1 | ~2 | AbB (antibody, IgG1, V domains shown, As for AbA: IgG1/lambda, CDR3 graft, residue limits derived; also called VHP/VL3) VH: QVQLQESGPGLVKPSETLSLTCAVSGYSISSGYYWGWIRQPPGKGLEWIGSISHTGNTYYNPPLKSRVTISVDTSKNQFSLKLSSVTAADTAVYYCARGGGISRPEYWGQGTLVTVSS VL: SSELTQDPAVSVALGQTVRITCQGDSLRTYYASWYQQKPGQAPVLVIYGKHKRPSGIPDRFSGSSSGNTASLTITGAQAEDEADYYCVSRAVVGNPHVLFGGGTQLTVL |
| no binding (tested: 40 nM) | ~2 | 1.28 | 1.22 | 0.137 | 0.999 | no binding (tested: 50 nM) | no binding (tested: 50 nM) | no binding (tested: 50 nM) | 0.03 | 0.82 | 3.36 | ~0.7 | ~1 | AbC (antibody, IgG1, V domains shown, As for AbA: IgG1/lambda, CDR3 graft, residue limits derived; also called VHP/VL11) VH: QVQLQESGPGLVKPSETLSLTCAVSGYSISSGYYWGWIRQPPGKGLEWIGSISHTGNTYYNPPLKSRVTISVDTSKNQFSLKLSSVTAADTAVYYCARGGGISRPEYWGQGTLVTVSS VL: SSELTQDPAVSVALGQTVRITCQGDSLRTYYASWYQQKPGQAPVLVIYGKHKRPSGIPDRFSGSSSGNTASLTITGAQAEDEADYYCSSRSRHGNPHVLFGGGTQLTVL |
| no binding (tested: 40 nM) | ~2 | 1.34 | 1.36 | 0.108 | 1.18 | no binding (tested: 50 nM) | no binding (tested: 50 nM) | no binding (tested: 50 nM) | 0.079 | 0.98 | 4 | – | ~1 | AbK (antibody, IgG1, V domains shown, As for AbA: IgG1/lambda, CDR3 graft, residue limits derived; also called VH3/VL3) VH: QVQLQESGPGLVKPSETLSLTCAVSGYSISSGYYWGWIRQPPGKGLEWIGSISHTGNTYYNPPLKSRVTISVDTSKNQFSLKLSSVTAADTAVYYCARFMGFGRPEYWGQGTLVTVSS VL: SSELTQDPAVSVALGQTVRITCQGDSLRTYYASWYQQKPGQAPVLVIYGKHKRPSGIPDRFSGSSSGNTASLTITGAQAEDEADYYCVSRAVVGNPHVLFGGGTQLTVL |
